# Target: anti-E7 mAb
# Assay: ELISA
# Details: read off a plot
row,Substance,response [OD450]
1,recombinant His-E7 protein of HPV16 (from UniProt P03129) C24P,1.3
2,recombinant His-E7 protein of HPV16 (from UniProt P03129) D36H,1.3
3,recombinant His-E7 protein of HPV16 (from UniProt P03129) E10Q,1.1
4,recombinant His-E7 protein of HPV16 (from UniProt P03129) E18Q,1
5,recombinant His-E7 protein of HPV16 (from UniProt P03129) L22A,1
